Test: label from the status in PepcDB records
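Also: failed if final PepcDB status was selected cloned or expressed and not failed if soluble or beyond.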

Row | Sequence | protein production
1 | MATAGSSYSVSTDHQVSSPLVNLGNVAGVCIMSNAWKVEQEPSLINFISAFLSANSFRLNFVSIPPDLIFNCGGVSIAFVFVTKWDFSNVASIFSRVKRLKGQFAQLYVVATLSTKEQSDSFMRSYFQYEMEFGKPAFVQVTDAEMGFEKIVKIAHSRGVCKQQKVASKLKVERKRTVQDTNIFIRFVTSIPNINKHDANTVMFTYEQVQVLYQAIGSIEAIAKASKEDILANTDLSSKKADTLTRFFQDPEFYLSPKFN | failed
2 | MEPSGGEQEPGAVRFLDLPWEDVLLPHVLNRVPLRQLLRLQRVSRAFRSLVQLHLAGLRRFDAAQVGPQIPRAALARLLRDAEGLQELALAPCHEWLSDEDLVPVLARNPQLRSVALGGCGQLSRRALGALAEGCPRLQRLSLAHCDWVDGLALRGLADRCPALEELDLTACRQLKDEAIVYLAQRRGAGLRSLSLAVNANVGDAAVQELARNCPELHHLDLTGCLRVGSDGVRTLAEYCPVLRSLRVRHCHHVAESSLSRLRKRGVDIDVEPPLHQALVLLQDMAGFAPFVNLQV | not failed
3 | MSDMGVIVKTNARALIPLIGVFGSYIILHGHLTPGGGFQGGATIVGTALLFLIAFGVDEAKKRINKDLYSALEGIGGLVFLGAAMLGLSVAFFYNILWHKGPLFNGRPGTLLSAGFLPIMNLGVGLKVFTGLVSAVFALALFRRWKE | failed
4 | MVKHQQTPAYIAAILYSFIIGLSFLFVKIALQTAEPFDILAHRFTIAFAAATVPILFGWVKLSILVKDVIDILPLALLYPALFFSFQAFGLVYSSSSEAGIIQAAIPIFTMVFAAYVLKERPTWTQKGFTVLSVAGVMFIFVMKGVDVESASLKGSLLILLSALSSAMYNTAARKMTQRFKLTELTYIMSAIGFVVFNAIALVRHGAAGTVGTYFLPFREPGFVLAIVYLGVLSSLVTSFLSNYTLSRIEAFKMSAFNHVSTIVTMIAGFVILNESLAWYHLAGAVCIMIGVVGSNINLEKKTKRPGMPAKK | failed
5 | MFAAAVSFVALLLFTIGLYGVMTSRVGIKMLISIEIMINSAILSIIGIGSYFYSSSVQIDPYVFALFAIAIGVVESAVGLGLLVIVYRKFGKIDISLLKEIRW | failed
6 | HRAKIRMEALPEDYERVPGTDMTPEQAYNVSNLDPALQKALDDLSPDFRVAVVLCDVVGMSYDEIADTLGVKMGTVRSRIHRGRSQLRAHLENQATSDEGAQLLLATGR | failed
7 | MKRCDRMNYREEYEKKLISPEEAAGLVESGMHIELGGAANTALIIDKYLAKRKDELENVKVGTFIDLAHYEFLKADPNGEVFEWSSGFLYRPVRKTSKELGPCVFRPNLYHDVPKIVREFSKDYDPIDIAYLVTTPMDKHGYFNFGLTCSHMKALAEVAEKVVVVVKENMPWVNGGYDECIHISEVDYIVEDNEMPVPFIPFSIPPTKEDEMIAENILNAETKDGRKLIQDGSTLQVGIGGLPDTVVKMLKEGGYKNLGVHTEMMGDGTLELIEEGVVTNDQKRLDRGKSVFTFALGSLKLYEYLDRNPEVATYPVDYTNDPFIIAQQPKMFSLNQAAEADLMGQINSEQMGLISPTGKLYQVSGTGGQLDFVMGCLFSRDRQGFSILAMYSTHNGTSRIKPILPPGAAVTVPRSMVQVVATEWGVAYLKGLTVKERAIAMIHLAHPDHREWLEKEAEKLGLLPPNYTIPAGKPDYLLYKRDLEHHHHHH | not failed
8 | MPVPPEFPLSVFYDGSCSVCATEMEAYMRKEHGGRLLFVDISAPSFDPTPYGITLDAFMYQMHAIDRTGRVYLSVEAFWAIWQAFPASTLYGFLGALVMLPGVNLLARAGYRGFARIRKYLPRRRETCAGGSCRIGQREE | failed
9 | MARRYAIYDVFTERRLAGNPLAVVFEAEGLAEEAMQAIAQEFNLSETVFILRPGNAAHSARLRIFTPAHELPFAGHPTVGAAVAIAEAAYGEANSALELMQVLEESVGPVRAAVRLKPGAATFAEFDLPRKPIRLHAQLDRQEIADALALKTTQVGFENHVPSFWSAGVPFVMIPLRDVGAAASVEFDPQRWEHLAPLAEGRLAAAYLYCRGGINHTARFHARMFAPGMGLAEDPATGSAVAALSGAINFFDGLVDGHHPMLIEQGVEMGRPSFIHLHLDIAEGKIAGARIGGHAVKVAEGELAV | failed
10 | MNDADSLQDYQRVRQQAIRSLFEIVEGSSEGTVIVDREARIVWINQRYAQRFGLADPAQAIGRPCESVIPGSLLREVVGSGKPILLDMMDSAKDPLVVMRLPIHDDAGEVIGAIGFALLDELRSLSPLVTRYLSMQRELASTRSQLQARQAKYSFSHFVGTSPVSLEVKRRARRGAASEAPVLLLGETGTGKELLAHAIHSASPRAHKAFVSVNAAAIPESLLEAEFFGTAPGAFTGAERKGRPGKLQVAQGGTLFLDEIGDMPLALQGKLLRVLQEKEFEAVGSNEVIRSDIRLVAATSIDLQQAMREGRFRADLYYRLNVLPIEIPPLRQRLDDLPALCESILDSLDHGRLHELGGDALALLARHAWPGNVRELRNVLERALLLADQRLLDAAALGAALGPLQPLPELPRAADDRPVGDFQQAREAFERDLIGRALAQSAGNVVEAAKRLGLGRSTLYKKIVALGMRLDSGTRLEIETN | failed
11 | MSMGKKHLNINSQNHQSTKDEDNNCKNSLFFGLFDDPESKRLRSGSMKRQYSDMGDSYHRVYDEQNDDVEYDGDGDGDEDEGSRMDMRVLMVLEYMRELYVGQLQLLKKMFPGAAKDEFLGFFNKIGDAVSQIKQDSRPPTKSMTMRRSLSAGSPRFTSKGVNLGPSDLRHERFKVTMVNAGGAAGSAGGGKGGSAAGQGQTKK | failed
12 | MNVSRLCSLYPTLLIPLLFVAGCGLFASSTAPVSRSPESMAREAEEFQSSRRFEDAIAQWRKVKESYISPELITLAEIKIADAQFDSGNYIEAAASYEEFRKLHPNHEKSAYALYRQGLSYFNQIHGFDTDQTPVSNTVTIFESFLRLYPQSEHAEEVRNKLDAARQNQVQYEIYVGQFYYRTEKYTSAIKRLEDALKRYPRSPLHDETLYYLGKAYIKAGDKAGGREAFQRLFNEFRTSKYVDEARSFLDKNF | failed
13 | NRDSLFNDPNAPVLGNPEGDVTVVEFFDYNCPYCRRAMAEVQGLVDADPNVRLVYREWPILGEGSDFAARAALAARQQGKYEAFHWALMGMSGKANETGVLRIAREVGLDTEQLQRDMEAPEVTAHIAQSMALAQKLGFNGTPSFVVEDALVPGFVEQSQLQDAVDRARKAA | not failed
14 | MTIKVFSPKYPTELEEFYAERIADNPLGFIQRLDLLPSISGFVQKLREHGGEFFEMREGNKLIGICGLNPINQTEAELCKFHINSAYQSQGLGQKLYESVEKYAFIKGYTKISLHVSKSQIKACNLYQKLGFVHIKEEDCVVELGEETLIFPTLFMEKIL | failed
15 | MLKGIPKIIPPELLKVLCEMGHGDQLVIADGNFPAESIGKNAIVVRMDGHGGGEILKAILTVFPLDTYVDKPATLMEKVPGDTVATPIWDVYAGLIKEHDERGADAIGSLERFAFYEQAKNAYCVIASGESAQYANLILQKGVVFNAE | not failed
16 | MNAKIIASLAFTSMFSLSTLLSPAHAEEQEKALNFGIISTESQQNLKPQWTPFLQDMEKKLGVKVNAFFAPDYAGIIQGMRFNKVDIAWYGNLSAMEAVDRANGQVFAQTVAADGSPGYWSVLIVNKDSPINNLNDLLAKRKDLTFGNGDPNSTSGFLVPGYYVFAKNNISASDFKRTVNAGHETNALAVANKQVDVATNNTENLDKLKTSAPEKLKELKVIWKSPLIPGDPIVWRKNLSETTKDKIYDFFMNYGKTPEEKAVLERLGWAPFRASSDLQLVPIRQLALFKEMQGVKSNKGLNEQDKLAKTTEIQAQLDDLDRLNNALSAMSSVSKAVQ | failed
17 | MAIQLKKGNRISLKKEAPGLKKVMLGLGWDMATSSSGGGFFGIFKKPAGSIDLDSGVLCLDSQGKLNSASDFVYYANLNHKSGAIAHQGDNLTGAGEGDDEQIFVDLEQVPATIQSLLFTVTIYQGRQRGQEFGQIKNAFVRLVDLSNNQEIAHYKLSGETYQGKTGMLMAELRREENGWAMTALGDGLDPQDSENLLKKYR | failed
18 | MSLEGFICKFNRKRRLYIENIMQVRVTGILIEDEKVLLVKQKVANRDWSLPGGRVENGETLEEAMIREMREETGLEVKIKKLLYVCDKPDASPSLLHITFLLERIEGEITLPSNEFDHNPIHDVQMVPINELSYYGFSETFINLISGGLANAGSYQGLKRNIGEGHHHHHH | not failed
19 | MSLREVALKILIVEDDTDAREWLSTIISNHFPEVWSAGDGEEGERLFGLHAPDVIITDIRMPKLGGLEMLDRIKAGGAKPYVIVISAFSEMKYFIKAIELGVHLFLPKPIEPGRLMETLEDFRHIKLAKEGHHHHHH | not failed
20 | LQQFLDALASSPEKIEFETTMAVIEDNYDFTPAAFTNGNTQNDANENNGSCKIFAFGLLNALDKEATLACFGRFYREDVLLHPENNDHQNIRNFMVTGWEGIQFETSALTAK | not failed
21 | MDSGQIILNLVIIVITFFVAAFFVACEFALVQTRPSALEEEQKKRDKPSKRIATSLHMVRNLNEYLSTTQVGVSLAGIILGWIGEQTTEHFVLDFLSLFNLSVSTAVLRGISIVIGVFLLTYLEVVLTEIVPKNIAIDMPLKVMAVITTPLRWFHVMFYPFVWLLNVSSAGVVKMLGIPVANEDNDVYSQAEILNLSRNAVTGGELERNDYLYMERAFEFNDKIAKDIMIDRTQLVVIDINDTVKQAIRVYLQKRFSRLPVVANNDKDKILGYVYNYDLIRQGEVDDDIRVNKLLRNIITIPETTPIQAILQKMIDKQTPIVVVVDEYGGTSGIVTDKDIYEELFGTVNDEIDNVSNEYIEKQADGTYRISGKMTIYDFERYFKTDLQEFEDSDVVTLTGYILDNFPKIQAGDTIQIGNFNFKALDFENAYINWFEVSAQRDSTPDDHNDDQTQD | failed
22 | MQNIILTTKKIFRLAFILILIAATFMSCKTAPAKEETLIDLIKAGKSEELQERLNSSAINMKDEEGNSLLHIAAVKNDPIIVRLLINMDADIEAKNNTGATPLAAALNNSAYDAVKVLVEYNANIFAKDNEGEKPFDTACKNNVPNLILTAQTIKQKDENQDTVLHLAVKAMDKQLTKQILAIAPPETVYNKENLSPLAIAYKHNNAEDSAEIASILLLAGIQPMGKDFAEFETASLARNYSMRFADGETLLHIFARKGYTGFLKFLIKNKVPIDVKDISSSTAMQEAVYNGNTEAAILLLQAGADPNSRNSSGNTALHLVMPEASRSKLFNELITAGANPNLKDNYGETPLHVAARIGMNDDILDQLLKAGADINERNKKGQTPLILAIDRNQTQQVDFLINHGADIHAEDKSGESAFIHSLSMGLPMVEHVVTEKNSTERDSNGSTPLHLAVSHRASSDIIYYLVEKKSLINTRNKLGNTPLHIAAEKNYREAGEILIANNADIFYANLNGDSPLKFALTLREGREDWMINSHTIGAGDGAGNTPLHLAAEWQILPMIPYLIDKGADINARNTNNETPLFNAVRTDSPEAIKALLGEGVSKKADLDARDFLGNTILHAAVRWSAYKAADFILSKDTEEYVRLINAKNLAGKTVLHEAAKQGEIKFINIFLKAKVDVNAADETGRSPLSEAVLANQTQAIDLLLKNGASPVQQDMYGRTALHEAVEISEESIILVRNAGGNPLTKDAYGKTPFSLALNKNIRTVDLVLGNDSLLADTDGDTPLHIAVKERVSLDYFQRIMKKKYPVNKRNKNGETALLLAIQNSQKEITRALLAGGADPFIVNNKGVSAITEIFMHHPDFTPIAAEFSLKQTDTLGEGMLHYAAKFADVQTLKDILALPGIKLDVKNTAGETPYQVALRWNRSEIAELLKTE | failed
23 | MNSIQIADETYVAADAARVSAAVADRCSWRRWWPDLRLQVTEDRADKGIRWTVTGALTGTMEIWLEPSMDGVLLHYFLHAEPTGVAAWQLARMNLARMTHHRRVAGKKMAFEVKTVLERSRPIGVSPVT | failed
